Assay results reported in US10359406B2, “Diagnosis and treatment of preeclampsia” (A1M Pharma AB, priority 2007, dated 2019).

B1: α1m: Recombinant human α1-microglobulin expressed in E. coli; small plasma and tissue protein, heme-binder and radical scavenger (protein, UniProt P02760 20-203, looked up)
Alpha-1-microglobulin: GPVPTPPDNIQVQENFNISRIYGKWYNLAIGSTCPWLKKIMDRMTVSTLVLGEGATEAEISMTSTRWRKGVCEETSGAYEKTDTDGKFLYHKSKWNITMESYVVHTNYDEYAIFLTKKFSRHHGPTITAKLYGRAPQLRETLLQDFRVVAQGVGIPEDSIFTMADRGECVPGEQEPEPILIPRV
modifications: Alpha-1-microglobulin

Tests used:
[1] = human blood plasma glycoprotein; read-out: Kd of heme binding; cited from earlier work
[2] = system: K562 cells; assay: Scavenging of cell-bound heme from K562 cells (spectrophotometry, visual); format: cell-based, human; conditions: cells preloaded with 10 μM heme 30 min; protein 2 or 10 μM, 2 h
Protocol: FIG. 18. Scavenging of cell heme by α1m. Human erythroleukemic cells (K562) were cultured with either buffer or 10 μM heme for 30 minutes, washed and resuspended in fresh culture medium. A: The cells were then incubated with α1m (2 or 10 μM) for 2 hours, after which time the culture medium was saved. The cells were washed and solubilized by suspending in a buffer containing 1% NP-40. The culture medium and cellsuspension were then analysed spectrophotometrically by reading the absorbance spectra (300-700 nm). B: The various cultures were also analysed visually. Cells were incubated with either buffer or 10 μM heme for 30 min (Step 1), washed and then incubated with buffer, 10 μM α1m or 10 μM AGP for 2 hours (Step 2), washed and solubilized as described above.
To study the mechanisms of the cytoprotective effect of α1m, we performed a series of experiments attempting to analyze the interactions between the protein and cell-bound heme. […] The culture media were saved, cells washed and solubilized, and both media and solubilized cells analyzed by spectrophotometry (FIG. 18A) and visually (FIG. 18B). Heme was seen as a strong brown-coloring of the cells and the typical absorbance spectrum with a non-distinct peak around 400 nm. […]

[3] = system: haemoglobin; assay: Haemoglobin-α1m complex isolated from placenta tissue (anti-α1m affinity column, SDS-PAGE, Western blotting); format: binding, human; conditions: 43-kDa band reacting with anti-α1m and anti-Hb-A; lost with mercaptoethanol
Protocol: FIG. 20 show SDS-PAGE and Western blotting of a haemoglobin-α1m complex isolated from placenta tissue. A placenta from a healthy donor was homogenized and centrifuged at 100,000 G for 60 min. The supernatant was applied to an anti-α1m Affigel column which was rinsed and eluted with 0.1 M glycine-HCl, pH 2.3. The eluate was separated by SDS-PAGE which was either stained with Coommassie (two left lanes) or transferred to PVDF membranes and blotted with anti-α1m or anti-Hb-A.
Molecules containing α1m were purified from placenta tissue as described [Berggård et al., 1999]. Approximately 200 g of an apparently normal term human placenta, taken within 3 hours after delivery, were homogenized in 200 ml of 50 mM Tris-HCl, pH 8.0, 0.25 M sucrose, 2 mM EDTA, pepstatin, 1 mg/l, antipain, 5 mg/l, and leupeptin, 10 mg/l, using a Potter-Elvehjem apparatus with a tight-fitting teflon pestle. The homogenate was centrifuged at 10,000 G for 10 min. This pellet was washed by repeatedly suspending 1:1 in the homogenization buffer and recentrifugation at 10,000 G for 10 min. The supernatant was centrifuged at 100,000 G for 90 min. This pellet, containing the placenta membranes and membrane-bound proteins, was dissolved in 40 ml homogenization buffer also containing 0.5% (w/v) Nonidet P-40 (BDH Chemicals) and centrifuged at 20,000 G for 30 min to remove particulate material. […]

[4] = system: K562 cells; assay: Heme-induced cell lysis/death of K562 cells (propidium iodide, FACS); format: cell-based, human; conditions: extracellularly added α1m 2, 5 or 10 μM; 200 μM heme, 4 h
Protocol: (§1) FIG. 16. A. Cell-protective properties of α1m against heme- and ROS-induced oxidation. K562 cells were labelled with the oxidation-sensitive probe H2DCFDA, washed, and incubated with α1m (2, 5 or 10 μM), AGP (2, 5 or 10 μM) or ascorbate (10 μM) prior to the addition of 10 μM heme. The cells were incubated for 2 h and analysed with FACS. B. K562 cells were cultured with α1m (2, 5 or 10 μM) or a control protein (α1-acid glycoprotein, AGP) (10 μM) prior to the addition of 200 μM heme and cultured 4 h. The cell suspension was collected, mixed with propidium iodide and analysed with FACS.
(§2) The anti-oxidation properties of α1m are illustrated in FIGS. 16 and 17. […] A possible mechanism for these actions may be the reductase properties of α1m, reducing the oxidants, the oxidation modifications, or both.

[5] = system: collagen; assay: Heme-induced oxidation of collagen/LDL; carbonyl groups measured by ELISA; format: biochemical
Protocol: FIG. 17. Reduction of carbonyl groups on oxidized collagen by α1m. Collagen, coated to microtiter plates, was oxidized by incubation with 50 μM heme for 17 h. After washing, 0.1, 0.3 or 1 μM α1m, ovalbumin or ascorbate were added, and incubated for 2 h. Carbonyl groups were measured by ELISA. Each column represents the mean of triplicates+/−SE
as §2

[6] = system: K562 cells; assay: Heme- and ROS-induced oxidation of K562 cells (H2DCFDA probe, FACS); format: cell-based, human; conditions: extracellularly added α1m 2, 5 or 10 μM; 10 μM heme, 2 h
Protocol: as §1, §2

| Molecule | Kd [1] | effect on cell-bound heme [2] | binding of haemoglobin in placenta tissue [3] | cell lysis (cell death) induced by heme [4] | heme- and ROS-induced oxidation of collagen, LDL, membrane lipids and whole cells [5] | removal of pre-formed oxidation products (carbonyl groups) on collagen and LDL ([5]; collagen oxidized with 50 μM heme 17 h, 0.1, 0.3 or 1 μM α1m, 2 h) | oxidation of cell cytosol and cytosol protein thiol groups by heme and ROS [6] |
| --- | --- | --- | --- | --- | --- | --- | --- |
| Hemopexin: glycoprotein (60 kDa) found in human blood plasma which eliminates free heme by binding it strongly | ~1 pM | – | – | – | – | – | – |
| AGP: control protein (α1-acid glycoprotein), control lipocalin [reference compound] | – | did not have any effect | – | – | – | – | – |
| B1 | – | almost completely removed from the cells | haemoglobin is bound by α1m | inhibits the cell lysis | inhibited | removed pre-formed oxidation products | inhibit the oxidation |
